Tests used:
E. coli, DH5alpha strain = experiment: Anti-microbial modified broth dilution assay with recombinant NCAMP-1; format: cell-based; conditions: for MIC50 (MIC for 50% bactericidal activity): 2 h incubation, colony counts
Protocol: (§1) The recombinant protein was examined for anti-microbial activity by a modified broth dilution assay. NCAMP-1 activity was tested against Gram positive (Micrococcus luteus, Streptococcus iniae) and Gram negative (E. coli, DH5alpha strain) microorganisms. S. iniae was grown and tested for susceptibility in Todd-Hewitt broth (THB) at 30° C. E. coli and M. luteus were grown and tested at 37° C. in Mueller-Hinton broth (MHB). Overnight cultures were diluted into fresh media and grown at the indicated temperature for 3-6 h. Cultures were diluted to 5000 CFUs (colony forming units)/ml in 10 mM sodium phosphate buffer (NAPB), supplemented to 10% wvith either MHB or THB. The relationship between A620 and CFUs was previously determined in our laboratory for each bacteria. Fifty microliters of bacteria (5000 CFUs) were added to an equal volume of NCAMP-1 (or control protein) diluted in 10 mM NAPB to the indicated protein concentration. Assay tubes were incubated at the appropriate temperatures for 2 h with shaking. Colony counts were then determined by plating serial dilutions of test cultures on the appropriate media. Results are expressed as CFUs/ml.

GpC and CpG ODNs = experiment: Southwestern (ODN) blot of recombinant NCAMP-1; format: binding; conditions: Southwestern blotting, biotinylated ODNs, FIG. 13B
Protocol: Biotinylated ODNs were used to identify potential. DNA binding proteins in NCC membrane lysate preparations and to evaluate the ODN binding of recombinant NCAMP-1. Membrane lysates were prepared as indicated above. Purified recombinant NCAMP-1 was mixed with SDS-PAGE sample buffer (reducing) prior to electrophoresis. […] Membranes were blocked in Superblock (Pierce, Rockford Ill.) blocking solution with 0.05% Tween-20. ODN's were diluted in Superblock and added to membranes (1 h, room temperature). Membranes were washed (3×) in TBS with 0.5% Tween-20 (TBST). Neutraviden-HRP (Pierce) diluted in Superblock (minimum dilution 1:50000) was added and incubated for 30 min at room temperature. Blots were washed (3×) in TBST and were developed with enhanced chemiluminiscence (SuperSignal® West Pico Pierce, Rockford, Ill.).

Streptococcus iniae = experiment: Anti-microbial modified broth dilution assay with recombinant NCAMP-1; format: cell-based; conditions: S. iniae
Protocol: as §1

Micrococcus luteus = experiment: Anti-microbial assay, residual colony counts; format: cell-based; conditions: M. luteus, 37 C, 2 h
Protocol: as §1, with “Fifty microliters of bacteria (5000 CFUs) were added to an equal volume of NCAMP-1 (or control protein) diluted in 10 mM NAPB to the indicated protein concentration. Assay tubes were incubated at the appropriate temperatures for 2 h with shaking.” left out
M. luteus were killed by full length recombinant NCAMP-1. […] After 2 hours, the OD620 was measured. Using a previously determined relationship of OD620 0.1=1.2×10^7 CFUs/ml, bacteria was diluted to 10^5 CFUs/ml in sodium phosphate buffer (pH8) supplemented with 10% with MH broth (assay buffer). […] Serial dilutions of each sample were plated onto MH agar plates and residual colony counts were determined. […]

Molecule | MIC50 concentration (E. coli, DH5alpha strain) | MIC50 (MIC for 50% bactericidal activity) (E. coli, DH5alpha strain) | ODN binding of recombinant protein (GpC and CpG ODNs) | bactericidal activity (E. coli, DH5alpha strain; FIG. 17) | bactericidal activity (Streptococcus iniae; FIG. 17) | MIC50 (MIC for 50% bactericidal activity) (Streptococcus iniae; 2 h incubation, colony counts) | bactericidal activity (Micrococcus luteus)
NCAMP-d2: truncated recombinant NCAMP-1, aa 1-60 of SEQ ID NO:3 (MSAQAEETAPEAAAPVQPSQPAAKKKGPASKAKPASAEKKNKKKKGKGPGKYSQLVINAI; listed as Ictalurus punctatus) | 1.0 µM | 1.0 µM | – | – | – | – | –
NCAMP-d1: truncated recombinant NCAMP-1, aa 1-118 of SEQ ID NO:3 (protein, listed as Ictalurus punctatus) MSAQAEETAPEAAAPVQPSQPAAKKKGPASKAKPASAEKKNKKKKGKGPGKYSQLVINAIQTLGERNGSSLFKIYNEAKKVNWFDQQHGRVYLRYSIRALLQNDTLVQVKGLGANGSF | 0.63 µM | 0.63 µM | – | – | – | – | –
NCAMP-1: NCC cationic antimicrobial protein-1 from channel catfish, 203 amino acids, SEQ ID NO:3; recombinant His-tagged form expressed in E. coli (protein, listed as Ictalurus punctatus, His tag, recombinant His-tagged form expressed in E. coli) MSAQAEETAPEAAAPVQPSQPAAKKKGPASKAKPASAEKKNKKKKGKGPGKYSQLVINAIQTLGERNGSSLFKIYNEAKKVNWFDQQHGRVYLRYSIRALLQNDTLVQVKGLGANGSFKLNKKKFIPRTKKSSVKPRKTAKPTKKPAKKAAKKKKRVSGVKKATPPPEKTSKPKKADKSPAVSAKKASKPKKAKQTKKTAKKT | – | 0.43 uM (SEQ ID NO: 3) | bind to GpC (SEQ ID NO:11) and CpG (SEQ ID NO:7) | killed | killed | 0.86 µM | killed
